Residue numbers refer to the chain shown, from its start. Each block holds one binder with its values, some of them ahead of it.
Legend:
Assay in all cases: holdup assay
Parameters in all cases: key: below the threshold = too weak to quantify, mostly under pKd 3.1 to 4
Details in all cases: plain residues with an end cap or a label only (N-terminal biotin on a linker: ado-ado)
APBA1_2, Q02410 = target: T1, APBA1_2, Q02410
T1 sequence (Q02410 742-832, limits assumed, looked up): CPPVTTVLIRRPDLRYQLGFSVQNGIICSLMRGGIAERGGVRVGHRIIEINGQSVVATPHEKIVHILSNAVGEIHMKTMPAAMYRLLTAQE

APBA2_1, Q99767 = target: T2, APBA2_1, Q99767
T2 sequence (Q99767 563-664, limits assumed, looked up): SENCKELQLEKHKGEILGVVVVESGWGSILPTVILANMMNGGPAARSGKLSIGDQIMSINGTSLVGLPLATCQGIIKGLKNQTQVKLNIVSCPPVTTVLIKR

APBA2_2, Q99767 = target: T3, APBA2_2, Q99767
T3 sequence (Q99767 654-744, limits assumed, looked up): T1 sequence (Q02410 742-832, limits assumed, looked up) with R10K, R15K, P59A, H65Q, I66A, A70S, Y84F, A89G

DLG3_2, Q92796 = target: T4, DLG3_2, Q92796
T4 sequence (Q92796 221-321, limits assumed, looked up): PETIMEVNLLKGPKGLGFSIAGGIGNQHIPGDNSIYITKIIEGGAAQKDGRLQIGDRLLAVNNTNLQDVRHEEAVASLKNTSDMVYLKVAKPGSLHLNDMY

DLG4_1, P78352 = target: DLG4_1, P78352
Sequence of DLG4_1, P78352 (P78352 62-152): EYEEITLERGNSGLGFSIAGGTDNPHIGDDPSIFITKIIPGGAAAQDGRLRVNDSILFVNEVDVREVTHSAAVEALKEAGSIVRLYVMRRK

FRMPD1, Q5SYB0 = target: T5, FRMPD1, Q5SYB0
T5 sequence (Q5SYB0 52-145, limits assumed, looked up): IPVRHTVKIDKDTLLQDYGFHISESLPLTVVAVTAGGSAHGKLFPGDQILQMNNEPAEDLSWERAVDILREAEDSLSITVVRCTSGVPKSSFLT

FRMPD3, Q5JV73 = target: FRMPD3, Q5JV73
Sequence of FRMPD3, Q5JV73 (Q5JV73 12-100): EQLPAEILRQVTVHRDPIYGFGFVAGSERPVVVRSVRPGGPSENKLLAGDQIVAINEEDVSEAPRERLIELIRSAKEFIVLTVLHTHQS

GRIP1_5, Q9Y3R0 = target: T6, GRIP1_5, Q9Y3R0
T6 sequence (Q9Y3R0 568-668, limits assumed, looked up): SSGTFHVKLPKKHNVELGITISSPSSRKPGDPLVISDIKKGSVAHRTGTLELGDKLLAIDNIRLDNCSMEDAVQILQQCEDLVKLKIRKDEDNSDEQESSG

GRIP2_5, Q9C0E4 = target: GRIP2_5, Q9C0E4
Sequence of GRIP2_5, Q9C0E4 (Q9C0E4 544-642): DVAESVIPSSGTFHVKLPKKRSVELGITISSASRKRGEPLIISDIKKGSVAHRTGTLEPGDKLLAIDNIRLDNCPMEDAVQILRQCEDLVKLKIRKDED

Inadl_6, Q8NI35 = target: Inadl_6, Q8NI35
Sequence of Inadl_6, Q8NI35 (Q8NI35 1058-1167): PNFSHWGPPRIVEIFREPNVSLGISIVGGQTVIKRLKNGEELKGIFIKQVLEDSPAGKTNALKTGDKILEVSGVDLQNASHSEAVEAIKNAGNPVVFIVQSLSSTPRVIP

LNX1_2, Q8TBB1 = target: LNX1_2, Q8TBB1
Sequence of LNX1_2, Q8TBB1 (Q8TBB1 371-470): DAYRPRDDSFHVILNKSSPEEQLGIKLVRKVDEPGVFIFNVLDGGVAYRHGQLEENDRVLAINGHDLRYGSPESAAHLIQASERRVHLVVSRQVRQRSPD

LNX2_2, Q8N448 = target: T7, LNX2_2, Q8N448
T7 sequence (Q8N448 334-432, limits assumed, looked up): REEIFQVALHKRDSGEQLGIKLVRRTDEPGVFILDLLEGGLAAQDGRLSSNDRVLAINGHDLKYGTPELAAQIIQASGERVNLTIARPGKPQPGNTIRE

LRRC7, Q96NW7 = target: T8, LRRC7, Q96NW7
T8 sequence (Q96NW7 1440-1537, limits assumed, looked up): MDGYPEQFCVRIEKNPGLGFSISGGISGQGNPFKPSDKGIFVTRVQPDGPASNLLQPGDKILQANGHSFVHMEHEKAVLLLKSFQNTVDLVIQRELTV

MAGI2_4, Q86UL8 = target: MAGI2_4, Q86UL8
Sequence of MAGI2_4, Q86UL8 (Q86UL8 772-865): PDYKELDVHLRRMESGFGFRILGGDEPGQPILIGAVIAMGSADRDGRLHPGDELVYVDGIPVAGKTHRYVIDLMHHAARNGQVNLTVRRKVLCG

MAGI2_5, Q86UL8 = target: MAGI2_5, Q86UL8
Sequence of MAGI2_5, Q86UL8 (Q86UL8 915-1017): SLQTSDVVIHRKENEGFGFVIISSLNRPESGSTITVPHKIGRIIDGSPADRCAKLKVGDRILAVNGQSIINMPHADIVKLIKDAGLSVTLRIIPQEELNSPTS

MAST2, Q6P0Q8 = target: MAST2, Q6P0Q8
Sequence of MAST2, Q6P0Q8 (Q6P0Q8 1099-1202): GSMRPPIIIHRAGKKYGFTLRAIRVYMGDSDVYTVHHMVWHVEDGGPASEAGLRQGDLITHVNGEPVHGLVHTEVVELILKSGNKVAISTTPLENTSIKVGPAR

MPP2, Q14168 = target: T9, MPP2, Q14168
T9 sequence (Q14168 180-250, limits assumed, looked up): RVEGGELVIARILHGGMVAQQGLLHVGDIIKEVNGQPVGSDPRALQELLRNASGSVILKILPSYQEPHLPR

NHERF3_4, Q5T2W1 = target: T10, NHERF3_4, Q5T2W1
T10 sequence (Q5T2W1 373-468, limits assumed, looked up): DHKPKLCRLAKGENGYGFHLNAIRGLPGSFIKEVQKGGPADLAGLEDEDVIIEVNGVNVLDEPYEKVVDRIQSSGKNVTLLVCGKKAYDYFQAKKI

NOS1, P29475 = target: NOS1, P29475
Sequence of NOS1, P29475 (P29475 9-101): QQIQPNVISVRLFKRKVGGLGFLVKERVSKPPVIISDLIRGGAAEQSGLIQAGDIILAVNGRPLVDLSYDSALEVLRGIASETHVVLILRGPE

PDLIM1, O00151 = target: PDLIM1, O00151
Sequence of PDLIM1, O00151 (O00151 1-87): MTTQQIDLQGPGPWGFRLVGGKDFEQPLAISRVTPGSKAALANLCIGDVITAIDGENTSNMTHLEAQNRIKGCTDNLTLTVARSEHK

RADIL, Q96JH8 = target: T11, RADIL, Q96JH8
T11 sequence (Q96JH8 971-1071, limits assumed, looked up): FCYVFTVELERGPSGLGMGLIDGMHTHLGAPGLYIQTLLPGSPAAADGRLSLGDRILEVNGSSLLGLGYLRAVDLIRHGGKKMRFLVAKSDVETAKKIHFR

SCRIB_3, Q14160 = target: SCRIB_3, Q14160
Sequence of SCRIB_3, Q14160 (Q14160 999-1103): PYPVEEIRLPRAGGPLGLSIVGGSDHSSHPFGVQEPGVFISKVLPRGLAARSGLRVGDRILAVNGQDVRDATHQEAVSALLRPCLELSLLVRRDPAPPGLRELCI

SIPA1L2, Q9P2F8 = target: T12, SIPA1L2, Q9P2F8
T12 sequence (Q9P2F8 945-1036, limits assumed, looked up): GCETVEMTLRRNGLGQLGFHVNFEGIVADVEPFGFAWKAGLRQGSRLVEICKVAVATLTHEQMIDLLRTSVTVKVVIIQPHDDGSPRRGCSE

TIAM2, Q8IVF5 = target: T13, TIAM2, Q8IVF5
T13 sequence (Q8IVF5 885-986, limits assumed, looked up): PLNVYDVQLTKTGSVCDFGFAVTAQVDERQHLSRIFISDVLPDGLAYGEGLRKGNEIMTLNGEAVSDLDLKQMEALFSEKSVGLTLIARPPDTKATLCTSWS

TJP1_2, Q07157 = target: TJP1_2, Q07157
Sequence of TJP1_2, Q07157 (Q07157 181-274): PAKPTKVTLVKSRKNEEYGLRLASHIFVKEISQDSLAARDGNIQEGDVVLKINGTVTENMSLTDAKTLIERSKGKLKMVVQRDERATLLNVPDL

pKd (APBA1_2, Q02410): below the threshold | pKd (APBA2_1, Q99767): below the threshold | pKd (APBA2_2, Q99767): below the threshold | pKd (DLG3_2, Q92796): below the threshold | pKd (DLG4_1, P78352): below the threshold | pKd (FRMPD1, Q5SYB0): below the threshold | pKd (FRMPD3, Q5JV73): below the threshold | pKd (GRIP1_5, Q9Y3R0): below the threshold | pKd (GRIP2_5, Q9C0E4): below the threshold | pKd (Inadl_6, Q8NI35): below the threshold | pKd (LNX1_2, Q8TBB1): 3.77 | pKd (LNX2_2, Q8N448): 4.09 | pKd (LRRC7, Q96NW7): below the threshold | pKd (MAGI2_4, Q86UL8): below the threshold | pKd (MAGI2_5, Q86UL8): below the threshold | pKd (MAST2, Q6P0Q8): below the threshold | pKd (MPP2, Q14168): below the threshold | pKd (NHERF3_4, Q5T2W1): below the threshold | pKd (NOS1, P29475): 3.62 | pKd (PDLIM1, O00151): below the threshold | pKd (RADIL, Q96JH8): 3.98 | pKd (SCRIB_3, Q14160): below the threshold | pKd (SIPA1L2, Q9P2F8): below the threshold | pKd (TIAM2, Q8IVF5): below the threshold | pKd (TJP1_2, Q07157): 3.52
B1: EPHA6, Q9UF33 (peptide)
chain: MHIQEKGFHV

pKd (APBA1_2, Q02410): 4.51 | pKd (APBA2_1, Q99767): below the threshold | pKd (APBA2_2, Q99767): below the threshold | pKd (DLG3_2, Q92796): 4.59 | pKd (DLG4_1, P78352): 4.48 | pKd (FRMPD1, Q5SYB0): below the threshold | pKd (FRMPD3, Q5JV73): below the threshold | pKd (GRIP1_5, Q9Y3R0): below the threshold | pKd (GRIP2_5, Q9C0E4): below the threshold | pKd (Inadl_6, Q8NI35): below the threshold | pKd (LNX1_2, Q8TBB1): 3.6 | pKd (LNX2_2, Q8N448): 4.22 | pKd (LRRC7, Q96NW7): 3.49 | pKd (MAGI2_4, Q86UL8): 4.98 | pKd (MAGI2_5, Q86UL8): 4.09 | pKd (MAST2, Q6P0Q8): 5.27 | pKd (MPP2, Q14168): below the threshold | pKd (NHERF3_4, Q5T2W1): below the threshold | pKd (NOS1, P29475): 4.05 | pKd (PDLIM1, O00151): 3.81 | pKd (RADIL, Q96JH8): 3.74 | pKd (SCRIB_3, Q14160): 4.36 | pKd (SIPA1L2, Q9P2F8): below the threshold | pKd (TIAM2, Q8IVF5): below the threshold | pKd (TJP1_2, Q07157): below the threshold
B2: FOXI1, Q12951 (peptide)
chain: VLYPREGTEV

pKd (APBA1_2, Q02410): 4.25 | pKd (APBA2_1, Q99767): below the threshold | pKd (APBA2_2, Q99767): below the threshold | pKd (DLG3_2, Q92796): 4.2 | pKd (DLG4_1, P78352): 4.07 | pKd (FRMPD1, Q5SYB0): below the threshold | pKd (FRMPD3, Q5JV73): below the threshold | pKd (GRIP1_5, Q9Y3R0): below the threshold | pKd (GRIP2_5, Q9C0E4): below the threshold | pKd (Inadl_6, Q8NI35): below the threshold | pKd (LNX1_2, Q8TBB1): 3.47 | pKd (LNX2_2, Q8N448): 5.15 | pKd (LRRC7, Q96NW7): below the threshold | pKd (MAGI2_4, Q86UL8): 3.48 | pKd (MAGI2_5, Q86UL8): 4.72 | pKd (MAST2, Q6P0Q8): 5.62 | pKd (MPP2, Q14168): below the threshold | pKd (NHERF3_4, Q5T2W1): below the threshold | pKd (NOS1, P29475): 3.66 | pKd (PDLIM1, O00151): below the threshold | pKd (RADIL, Q96JH8): 4 | pKd (SCRIB_3, Q14160): below the threshold | pKd (SIPA1L2, Q9P2F8): below the threshold | pKd (TIAM2, Q8IVF5): below the threshold | pKd (TJP1_2, Q07157): below the threshold
B3: PTPN18, Q99952 (peptide)
chain: RDPPAEWTRV
